A short description of the series: yeast display, Sf9 membrane polyspecificity reagent, FACS + sequencing; frameworks hold sequencing errors. An outline of the steps: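 Galactose-induced (36–48 hours) yeast carrying a synthetic nanobody display library were exposed to 10% biotinylated, detergent-solubilized Sf9 membrane reagent at 4 °C for 1 hour. FACS followed streptavidin microbead enrichment, using low and high (top ~1%) gates for expression (anti-HA) and reagent binding (streptavidin). Colony PCR, MiSeq 2 × 250 sequencing and CDR-length filtering followed. Labels for polyreactivity reflect the gate of origin.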
Regarding “QVQLVETGRGLVQAGGSLRLSCAASGRIFYANAMGWYRQAPGKERELVAAISRTGGSTYYADSVKGRFTISRDNAKNTVYLQMNSLKPEDTAVYYCNALSGVYGYDDWGQGTQVTVSS”, the “polyreactivity (PSR sort gate)” value is “high polyreactivity”. In the case of “QVQLVETGVGLVQAGGSLRVICAASGLTFYLYAMGWNRQAPGKERELAAAISSTGITNFADSVKGRFTISRDNAKNTVYLQMTSLKPEDTAVYYCNADYHPFFFEFNYWGKGTQVTVSS”, the “polyreactivity (PSR sort gate)” value is reported as “high polyreactivity”. The result for “QVQLVETRGGLVQAGVSLRLICSASGSTFAPKSIGLYRQAPGKERELVAGLSWGDSTYYADSVKGRFTISRDNAKNTVYLQMISLKPEDTAVYFCAVRWVWNPCGIQGDWAVDYDYWGQGTQVTVSS” reads “low polyreactivity”; that for “QVQLVEYQGGLVQAGGSLRLSSAASGIIFDQYAMGWYRQAPGKEREVVAAITYSGGCTYYADSVNGRFTISRDNEKNTVYLQMNSLKPEDTAVYYCADLFGYSLYDAQYDYWGQGTQVTVSS”, “low polyreactivity”. In the case of “QVQLVGSGGALVQAGGSLRLSCAASGRTFSYYAMGWYRQAPGKERELVASIRSSRTSTYYADSVKGRFTISRDNAKNTVYLQMNSLKPEDTAVYSCAKRYFTWRSTYNYWGQGTKVTVSS”, the “polyreactivity (PSR sort gate)” value is listed as “high polyreactivity”. Turning to “QVQLVGSGGGLVQAGGSLRLSCAASGRIFRYNAMGWYRQAPGKEREFVATISWRGGNTYYADSVKGRFTISRDNAKNTVYLQMNSLKPEDTAVYYCATRRLYSKSWYYYWGQGTQVTVSS”, the “polyreactivity (PSR sort gate)” value is “high polyreactivity”. The result for “QVQLVGSGGGLVQAGSSLRLTCAASGLIFTYYAMGWYRQAPGKEREFVAVIDSSGDSTNYADSVKGRFTISRDNAKNTVYLQMNSLKPEDTAVYYCNAYNWSYIYFPFVQEYRTYDYWGQGTQVTVSS” reads “low polyreactivity”.

For the sequence “QVQLVKSGGGLVQAGGSLRLSCAASGFTFFVYAMGWYRPAPGKERELVAAITSSGGSTYYADSVKGRFTISRDNAKNTVYLQMNSLKPEDTAVYYCAADRYSYLGYPYEYEYWGQGTQGTVSS”, the “polyreactivity (PSR sort gate)” value was “low polyreactivity”. Turning to “QVQLVKSGGGLVQAGGSLRLSCAASGFTIYYYAMGWYRQAPGKEMELVASITSGGSTYYADSVKGRFTISRDNAKNTVYLQMNSLKPEDTAVYYCAKTRFHSKEGDYWGQGTQVTVSS”, the “polyreactivity (PSR sort gate)” value is reported as “low polyreactivity”.

On to “QVQLVKSGGGLVQAGGSLRLSCAASGIIFWLYDMGWYRQAPGKERELVAVITWSGDSTYADSVKGRFTISRDNAKNTVYLQMNSLKPEDTAVYYCAAREYYRKPYDHWGQGTQVTVSS”, for which the “polyreactivity (PSR sort gate)” value is listed as “high polyreactivity”. For “QVQLVKSGGGLVQAGGSLRLSCAASGSTFYNAMGWYRQAPGKEREWVAAISIGGSTYYADSVKGRFTISRYNAKNTVYLQMNSLKPEDTAVYYCNADLYYWLRYYDRNDYWGQGTQVTVSS”, the “polyreactivity (PSR sort gate)” value is “low polyreactivity”. As to “QVQLVKSGGGLVQAGGSLRLSCAASGTFRLYAMGWYRQAPGKERDFVAAITYGGVGTYYADSVKGRFTISRDNAKHTVYLQMNSLNPEDTAVSYCAAELYLTDTDVEYSYWGQGTQVTVSS”, the “polyreactivity (PSR sort gate)” value was “low polyreactivity”. With “QVQLVQSAGGLVQAGGSLRLSCAASGFTFVKYAMGWYRQAPGKERELLAVISRRGGSTYYADSVKGRFTISRDNAKNTVYLHMNSLKPEDTAVYYCAAVYYLYSAWRYDYWGQGTQVTVSS” the entry was “high polyreactivity”; with “QVQLVQSGGCLVQAGGSLRLSCAASGRIFGYYAIGWYRQAPGKERELVAGISRSGGSTYYADSVKWRFTISRDKAKNTVYLQMNSLKPEDTAVYYCAARFNGQTYYYWGQGTQGTVSS”, “high polyreactivity”; with “QVQLVQSGGGIVQAGGSLRISCAASGFIFSSYDMGWYRQAPGKESELVAAISWTGGSTYYADSVKARFTISRDNAKNTVYLQMTSLKPEETAVYYCNAYPYFLVRIMDSWGQGTEVTVSS”, “high polyreactivity”. The result for “QVQLVQSGGGLVEAGGSLRLSCAASGSNFWANAMGWYRQAPGKERELVAGITLNGGLTYYADSVKGRFTISRDNAKNTVYLQMYSLKPEETEVYFCAAAYPTDRHYYWGLGTQVTVSS” reads “low polyreactivity”. With “QVQLVQSGGGLVQAAGSLRLICAASGRTFPANAMGWYRQAPGKERELVAGITKSGGNTYYADSVKGRFTISRDNAKNTVYLQMNSLKPEDTAVYYCATRYYPLVNYLGYDYWGQGTQVTVSS” the entry was “low polyreactivity”; with “QVQLVQSGGGLVQAGGSLRISCAPSGLTCNGNAMGWYRQAPGKEREMVAAISSSGGTTYYADSVKGRFTISRDNAKNTVYLEMNSLKPEDTAVSYCAARPSGGYESTRTRDYWGQGTQVNVSS”, “low polyreactivity”. Regarding “QVQLVQSGGGLVQAGGSLRLSCAASGIIFFKYAMGWYRQAPGKERELVAAITESTSSTYYADSVKGRFTISRDNAKNTVYLEMNSMKTEDTAVYYCAARVSQWLPYGGYSRYYYWGQGTQVTVSS”, the “polyreactivity (PSR sort gate)” value is given as “high polyreactivity”.

Regarding “QVQLVQSGGGLVQAGGSLRLSCAASGLTNYRYAMGWNRQAPGQEREFVAGISASGGGSSYADSVKGRFTISRDNAKNTVYLQMNRLKPEDTAVYYCAATTTFFVWQGHNYCGQGTQVTVSS”, the “polyreactivity (PSR sort gate)” value is recorded as “low polyreactivity”. With “QVQLVQSGGGLVQAGGSLRLSCAASGNIISIYVMGWYRQAPGKERELVAAITSGGSTNYADSVKGRFTISRDNAKNTVYFQMNSLKPEDTAVYYCAAERNADDESYYWGQGSQVTVSS” the entry was “low polyreactivity”. In the case of “QVQLVQSGGGLVQAGGSLRLSCAASGRTFRIYAMGWYRQAPWKEREFVAGITRSDGSTYYADSVKGRFTISRDNAKNTVYLQMISLKPEDTAVYYCNVEPYSHYRSTEDYWGQGTQVTVSS”, the “polyreactivity (PSR sort gate)” value was “high polyreactivity”. With “QVQLVQSGGGLVQAGGSLRLSCAASGRTFYRNGMGWYREAPGKDREFVAAINYRGGSTNYADSVKGRFTITRDNAKITVYLQMNSLKPEDTAVYYCATRIFRAALRFDYWGQGTQVTVSS”, the “polyreactivity (PSR sort gate)” value was “high polyreactivity”. With “QVQLVQSGGGLVQAGGSLRLSCAASGRTFYYAMGWYRQAPGKERELVARITRRGGSTYYADSVKGRFTISRDNAKNTVYLQMNSLKPEDTAVYYCNARWHRYLLATYGYWVQGTQVTVSS” the entry was “high polyreactivity”; with “QVQLVQSGGGLVQAGGSLRLSCAASGSIFTSYAMGWYRQAPGKERELVAAINGSGGSTFYADSVKGRFTISRDHAKNTVYLQMNSLNPEYTAVYYCYTVGPRGTTYDDWGQGSQVTVSS”, “low polyreactivity”; with “QVQLVQSGGGLVQAGGSLRLSCAASGYILNPYAMGWYRPAPGKERELVAAITSGTITYYADSVKGRFTITRDNAKNTVYLQMNSLKPEDTAVYYCAADSWAHYESYDYWGQGTQVTVSS”, “low polyreactivity”. Regarding “QVQLVQSGGGLVQAGGSLRLSSAASGSTFWANAMGWYRQAPGKERELVAAISVRGGNTYYADSVKGRFTISRDNAKNTVYLQMNSLKPEDTAVYYCAARPISWTSYYDYWGQGTQVSVSS”, the “polyreactivity (PSR sort gate)” value is given as “high polyreactivity”. With “QVQLVQSGGGLVQARGILRLSCPPSGINFWYNAMGWYSQAQGKERELVASISTGGRTYYADSVKGRFTFSRDNAKNTVYLQMNSLKPVDTAVYYCAAASRVGFLYYYWGQGSQVTVSS”, the “polyreactivity (PSR sort gate)” value is “low polyreactivity”.

For “QVQLVQSGGGLVQEGGSLRLSCYASGRIFSIYTLGWYRQAPGKERELVAAIRWSGGSTYYADSVKWRLTISRDNAKNTVYLQMNSLKPEDTAVYYCARQSVLGYRSYGPFPKYYYWGQGTQVTVSS”, the “polyreactivity (PSR sort gate)” value is recorded as “high polyreactivity”. For the sequence “QVQLVQSGGGVVQAGGSLRLSCAASGRIFNTNAMGWYRHAPGKERELVAGITDSGDSTYYADSVKGRFTISRDNAKITVYLQMYSLKPEDSAVYYCATDPASPYIYDFWGLGTQVTVSS”, the “polyreactivity (PSR sort gate)” value is recorded as “low polyreactivity”.

In the case of “QVQLVQTGRGLVQAGGSLRLICAASANIFYTNAMGWYRQAPGKERELVAAISGSGGRTYYADSVKGRFTISRDNAKNTVYLQMNSLKPEDTAVYYFNAVRRDYYDRTYGYWGQGTQVTVSS”, the “polyreactivity (PSR sort gate)” value is “low polyreactivity”.

Regarding “QVQLVVSGAGLVQAGGSLRLSCAASGRNVVRNAMGWSRQAPGNEREWVAAITSGGRTYYAVSVKGRFTISRDNAKNTVYLQMTSLTPEDTAVYSCSTETRPHSVKNSPISLPDDYWGQGTQETVSS”, the “polyreactivity (PSR sort gate)” value is “low polyreactivity”. For the sequence “QVQLVVSGGGLVQAGGSLRLSCAASGFIFYRYAMGWYRQAPGKEWELVAAISRSGGTTYYADSVKGRFTISRDNAKNTVYLQKNSLKPEDTAVYYCNVKRGTIGGYYYWGQGTQVTVSS”, the “polyreactivity (PSR sort gate)” value is listed as “high polyreactivity”. For the sequence “QVQLVVSGGGLVQAGGSLRLSCAASGNTFTKYAMGWYRQAPGKERELVAGITRGGSTNYADSVKGRFTISRDNAKNTVYLQMNSLIPEDTAVYYCNARPVYGSRFYSAVRMEYWGQATQVTVSS”, the “polyreactivity (PSR sort gate)” value is reported as “low polyreactivity”.

As to “QVQLVVSGGGLVQAGGSLRLSCAASGRTFRSYAMGWYRQEPGKERELVAAISDGGSTNYADSVKGRFTISRDNAKNTVYLQMNSLKPEDTAVYYCAAEFFFAVFRFYYWGQGTQVTVSS”, the “polyreactivity (PSR sort gate)” value is “low polyreactivity”. Consider “QVQLVVSGGGLVQAGGSLRLSCAASGSIFAQNVMGWYRQAPGKERELVAAISYCGGTTYYADSVKGRFTISRDNAMNSVYLQMNSLKPEDTAVYYCAAEFGVYEYDYWGQGTQVTVSS”, for which the “polyreactivity (PSR sort gate)” value is reported as “low polyreactivity”. The result for “QVQLVVSGGGLVQAGGSLRLSCAASGSIFSRYTMGWYRVAPGKERELVAAITASGTRTYYADSVKGRFTISRDNAKNTVYLQMNSLKPEDTAVYYCNVVRGSRDVTYGYNYWGQGTQVTVSS” reads “high polyreactivity”; that for “QVQLVVSGGGLVQAGGSLRLSCAASGSTVVTYAMGWYRQAPGKERELVAAISRSGTSTYYADSVKGRYTISRDNAKYTVYLHLPSRKPEDTAVYDCAAYGPRVNGEIGREYYYWGQGTQVTVSS”, “low polyreactivity”. With “QVQLVVSGGGLVQAGGSLRLSFAASGFIFRYYGGGWYTPAPGKERELVAAITSTGRRYYADSVKGRFTISRDNAKNTVYLQMNSLKPEDTAVYYCAKAWLRWCEDYWGQGTQVTVSS” the entry was “low polyreactivity”; with “QVQLVVSGVGLVQAGGSLRLSCAASGRIFSYYAMGWYRQAPGKEREFVATNSGSGGSTYYADSVKGRFTISRDNAKNTVYLEMNSLKPEDTAVYYCKARSYSYWSNWRNAGSYDYWGQGTQVTVSS”, “high polyreactivity”; with “QVQMQESGGGTVMAGGSLRLSCAASGTIFVRLDMGSYRQAPGKEREFVATIGSGSSTYYADSVKGSFTISRDNVNKSVYLQMNSLKPEDTAVYYCAVSAAEQCRDYYWDQGTQVTVSS”, “low polyreactivity”.
